Test results published in publication PMC8558838 (The Journal of Experimental Medicine, 2021).

B1: human LIGHT extracellular domain (L83-V240) [human] / WT hHVEM (L39-V202) fused with a PD-L1 transmembrane domain and EGFP, on cells [human] (parent complex)
chain 1: LIQERRSHEVNPAAHLTGANSSLTGSGGPLLWETQLGLAFLRGLSYHDGALVVTKAGYYYIYSKVQLGGVGCPLGLASTITHGLYKRTPRYPEELELLVSQQSPCGRATSSSRVWWDSSFLGGVVHLEAGEKVVVRVLDERLVRLRDGTRSYFGAFMV
chain 2: LPSCKEDEYPVGSECCPKCSPGYRVKEACGELTGTVCEPCPPGTYIAHLNGLSKCLQCQMCDPAMGLRASRNCSRTENAVCGCSPGHFCIVQDGDHCAACRAYATSSPGQRVQKGGTESQDTLCQNCPPGTFSPNGTLEECQHQTKCSWLVTKAGAGTSSSHWV
B2: hCD160-6×His tag protein [human] / WT hHVEM (L39-V202) fused with a PD-L1 transmembrane domain and EGFP, on cells [human] (parent complex)
chain 1: GCINITSSASQEGTRLNLICTVWHKKEEAEGFVVFLCKDRSGDCSPETSLKQLRLKRDPGIDGVGEISSQLMFTISQVTPLHSGTYQCCARSQKSGIRLQGHFFSILFTETGNYTVTGLKQRQHLEFSHNEGTLS
chain 2: B1 chain 2

Variants of: B1
Test: flow cytometry on cells stained with soluble protein

Row | ratio to parent | Variant
1 | 0.7 | chain 2 N50A
2 | 1.8 | chain 2 L56A

The next lines start with the variant.

Row | Variant | ratio to parent
3 | chain 2 E77A | 1
4 | chain 2 G51A | 1.2
5 | chain 2 L52A | 0.9
6 | chain 2 L49A | 1.2

Variants of: B2
Test: as above

Row | ratio to parent | Variant
7 | 1.1 | chain 2 L52A
8 | 1.1 | chain 2 L56A
